Values of other authors as cited in paper PMC3433420.

Tests used:
Conditions in all cases: cited from earlier work
[1] = target: NCK1 (Homo sapiens) (UniProt P16333)
[2] = target: GRB7 (Homo sapiens) (UniProt Q14451)
[3] = target: PIK3R3-N (Homo sapiens) (UniProt Q92569)
[4] = target: PIK3R1-NC (Homo sapiens) (UniProt P27986)
[5] = target: BLK (Homo sapiens) (UniProt P51451)
[6] = target: SHC1-PTB (Homo sapiens) (UniProt P29353)
[7] = target: HSH2D (Homo sapiens) (UniProt Q96JZ2)
Chain of HSH2D (Homo sapiens) (Q96JZ2 29-130): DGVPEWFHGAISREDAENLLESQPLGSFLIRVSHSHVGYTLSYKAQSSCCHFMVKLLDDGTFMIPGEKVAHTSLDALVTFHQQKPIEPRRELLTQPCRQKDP

Chain of GRB7 (Homo sapiens) (Q14451 426-532): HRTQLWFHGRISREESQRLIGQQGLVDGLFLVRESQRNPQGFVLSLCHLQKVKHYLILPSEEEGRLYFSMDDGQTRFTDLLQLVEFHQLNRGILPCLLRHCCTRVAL
Chain of PIK3R1-NC (Homo sapiens) (P27986 328-723): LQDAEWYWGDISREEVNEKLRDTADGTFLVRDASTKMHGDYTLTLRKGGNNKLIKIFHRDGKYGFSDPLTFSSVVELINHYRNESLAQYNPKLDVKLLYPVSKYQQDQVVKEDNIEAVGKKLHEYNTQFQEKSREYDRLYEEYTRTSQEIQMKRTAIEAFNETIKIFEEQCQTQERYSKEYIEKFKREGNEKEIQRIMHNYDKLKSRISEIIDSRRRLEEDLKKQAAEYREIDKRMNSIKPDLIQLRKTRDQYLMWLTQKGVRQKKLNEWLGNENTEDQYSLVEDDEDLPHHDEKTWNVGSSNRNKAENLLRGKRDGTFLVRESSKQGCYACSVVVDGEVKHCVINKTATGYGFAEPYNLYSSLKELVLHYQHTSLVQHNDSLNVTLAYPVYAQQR
Chain of BLK (Homo sapiens) (P51451 119-225): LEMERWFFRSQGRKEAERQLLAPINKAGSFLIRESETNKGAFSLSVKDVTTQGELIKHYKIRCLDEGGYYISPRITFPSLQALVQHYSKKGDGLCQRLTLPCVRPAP
Chain of SHC1-PTB (Homo sapiens) (P29353 483-583): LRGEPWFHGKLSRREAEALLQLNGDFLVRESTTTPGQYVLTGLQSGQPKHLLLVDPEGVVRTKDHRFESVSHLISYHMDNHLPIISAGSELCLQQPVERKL

## …pYLIPQQGFd
[1]
  apparent Kd (screen): 1000 nM
[2]
  apparent Kd (screen): 2000 nM
[3]
  apparent Kd (screen): 470 nM

## …pYLVPQQGF
[4]
  apparent Kd (screen): 1640 nM

## …pYWDQDPPE
[5]
  apparent Kd (screen): 52 nM
[6]
  apparent Kd (screen): 88 nM
[7]
  apparent Kd (screen): 2000 nM
